From doi:10.1101/2023.01.01.522448
Values joined by “and” are separate entries in the source; they are usually repeats but may differ in a detail not shown here. Equal values may be shown once.

Tests used:
[1] = molecular target: recombinant L-asparaginase from Pseudomonas resinovorans IGS-131 (PrASNase) (Pseudomonas resinovorans IGS-131); assay: SEC
[2] = molecular target: recombinant L-asparaginase from Pseudomonas resinovorans IGS-131 (PrASNase) (Pseudomonas resinovorans IGS-131); assay: SEC; remark: listed apart in the source
[3] = molecular target: recombinant L-asparaginase from Pseudomonas resinovorans IGS-131 (PrASNase) (Pseudomonas resinovorans IGS-131); assay: AUC
[4] = molecular target: recombinant L-asparaginase from Pseudomonas resinovorans IGS-131 (PrASNase) (Pseudomonas resinovorans IGS-131); assay: cross-linking + SEC
[5] = molecular target: recombinant L-asparaginase from Pseudomonas resinovorans IGS-131 (PrASNase) (Pseudomonas resinovorans IGS-131); assay: SAXS

recombinant L-asparaginase from Pseudomonas resinovorans IGS-131 (PrASNase) (enzyme)
stoichiometry N [1]: 2 | stoichiometry N [2]: 2 | percent present as dimer [3]: 4.8% | percent present as monomer [3]: 94.9% | stoichiometry N [4]: 2 | stoichiometry N [5]: 2 and 4
